Source: publication PMC11770808, “Interplay between conformational dynamics and substrate binding regulates enzymatic activity: a single-molecule FRET study” (Chemical Science, 2025)

Tested on: T1, Nc1ncnc2c1ncn2[C@@H]1O[C@H](COP(=O)(O)OP(=O)(O)O)[C@@H](O)[C@H]1O
T1 construct: purified recombinant, details only in ESI
Assay: coupled assay (hexokinase / glucose-6-phosphate dehydrogenase), initial velocities fitted to Michaelis-Menten
Assay type: biochemical, Escherichia coli
Settings: backward reaction, 0 M urea, dye-labelled enzyme (A73C/V142C background inferred), 50 mM Tris-HCl pH 8.0, 100 mM KCl, 10 mM MgCl2

For “adenylate kinase (AK), wild-type (WT) (Escherichia coli K-12; A73C/V142C)”, the Km was 1340(±98) µM.
